Data: patent publication US20090203041A1, “BMP4 INHIBITORS” (priority 2006, published 2009)
Entries after “also recorded” stand apart in the source; their conditions may differ. One block for each molecule: values may come before it.

Assays:
BMP4 [1] = target: T1, BMP4 (Homo sapiens, UniProt P12644); experiment: BMP4-induced C2C12 cell differentiation assay, peptide preincubated with BMP4; assay type: cell-based; details: peptide 5 μm preincubated with BMP4 100 ng/mL; C2C12 cells, ALP activity
T1 sequence (P12644 293-408): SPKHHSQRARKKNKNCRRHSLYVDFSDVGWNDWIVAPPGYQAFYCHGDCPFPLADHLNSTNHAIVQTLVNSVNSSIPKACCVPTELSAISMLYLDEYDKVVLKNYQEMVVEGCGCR
Procedure: (§1) To test whether exogenous expression of Gremlin can inhibit the activity of exogenously expressed BMP4, the activity of BMP4 secreted into the CM was measured by its effect on mouse myoblast C2C12 cell differentiation into osteoblasts. C2C12 cells were grown in 96-well plate until 90% confluence. Agents (100 ng/ml BMP4 or equivalent amounts of concentrated conditioned medium) were then added into the culture medium (Dulbecco's modified Eagle's medium with 5% fetal bovine serum) and the cells were cultured for 3 days. The cells were then lysed with 0.1% Triton X-100, and the alkaline phosphatase (ALP) activity in the cell lysate was quantified by adding substrate p-nitrophenyl phosphate and measuring absorbance at A405. Triplicate measurements were preformed for every sample. Conditioned media from cells transfected with control, Myc-BMP4, GRE-HA, or Myc-BMP4 and GRE-HA were assayed for BMP4 activity.
The function of the 30 amino acid Gremlin motif in mediating interaction between Gremlin and BMP4 and BMP4 inhibitor activity was assayed by the BMP4-induced C2C12 cell differentiation assay. A linear peptide corresponding to the mapped amino acid sequence (145-174) was synthesized by Genscript (Scotch Plains, N.J.).

Myc-BMP4 = target: T2, Myc-BMP4 (Mus musculus, UniProt P21275, INS296EQKLISEEDL); experiment: Co-immunoprecipitation of Myc-BMP4 with HA-tagged Gremlin proteins co-expressed in COS-1 cells (anti-HA IP, anti-Myc Western blot); assay type: binding; details: co-transfected COS-1 cells
T2 construct: expressed in transfected cells; host or cells: COS-1 cells
T2 sequence (P21275 with tags, fused parts or gaps limits assumed): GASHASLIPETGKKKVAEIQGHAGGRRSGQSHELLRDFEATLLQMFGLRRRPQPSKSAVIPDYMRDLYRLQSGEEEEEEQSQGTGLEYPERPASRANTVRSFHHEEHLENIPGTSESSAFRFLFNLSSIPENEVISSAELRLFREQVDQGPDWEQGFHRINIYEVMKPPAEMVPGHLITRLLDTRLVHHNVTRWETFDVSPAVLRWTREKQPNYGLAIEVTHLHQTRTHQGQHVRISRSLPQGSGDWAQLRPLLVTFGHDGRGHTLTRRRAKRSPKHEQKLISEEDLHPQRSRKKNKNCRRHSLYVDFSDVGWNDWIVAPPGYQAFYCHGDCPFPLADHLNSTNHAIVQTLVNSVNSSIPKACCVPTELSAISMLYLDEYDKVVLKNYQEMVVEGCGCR
Procedure: (§2) To test whether exogenous BMP4 and Gremlin physically interact intracellularly, Myc-BMP4 and GRE-HA were co-transfected into COS-1 cells using Lipofectamine Plus (Invitrogen). Transfected cells were first cultured in medium containing 10% fetal calf serum for 20 hours and then cultured in serum-free conditioned medium (CM) for an additional 48 hours, and experiments were repeated at least three times.
To determine the specificity of BMP4-Gremlin binding and the molecular motif of Gremlin that is responsible for the intermolecular interaction, two truncated Gremlin molecules, GRE-DAN-HA and GRE-NF-HA, were generated with truncation of the NH2-terminal fragment (NF) or the carboxyl-terminal DAN domain (DAN), respectively, as diagramed in FIG. 6A (amino acid positions are in reference to SEQ ID NO:4). The two truncated Gremlin molecules were co-transfected with Myc-BMP4 into COS-1 cells, and immunoprecipitation was performed with anti-HA antibodies.
Partial cDNA of mouse Mucin-2, which encodes a Mucin-2 protein fragment of 114 amino acids on the carboxyl terminus (PQNQ . . . LGRK, GenBank™ accession number XP—620590) was generated by high fidelity RT-PCR (Pfu, Stratagene) and verified by DNA sequencing. An HA epitope was also added to the carboxyl terminus of Mucin-2 by inverted PCR. A variety of Gremlin-Mucin-2 chimeric cDNA constructs were created by inverted PCR in combination with restricted digestion and ligation of PCR products. The Gremlin-Mucin-2 chimeras generated are as diagrammed in FIG. 7B. These HA-epitope tagged Gremline-Mucin-2 chimera proteins were co-expressed with Myc-BMP in COS-1 cells by transient transfection. The BMP4 binding activities and inhibitory activities were evaluated by immunoprecipitation and BMP4-stimulated C2C12 cell differentiation assay as described in Examples 3 and 4. The results for the Gremlin-Mucin-2 chimeras are seen in FIGS. 8A and 8B.

[2] = target: Myc-tagged mouse BMP4 (Myc-BMP4) (mouse) (UniProt P21275); experiment: cell-based or functional assay
BMP4 [3] = target: T3, BMP4 (Mus musculus, UniProt P21275); experiment: BMP4-stimulated C2C12 cell differentiation assay (alkaline phosphatase activity) with conditioned medium of transfected COS-1 cells; assay type: cell-based; details: C2C12 ALP activity
T3 construct: mature but no precursor BMP4 was detected in the concentrated CM; expressed in transfected cells; host or cells: COS-1 cells (conditioned medium applied to C2C12 cells)
T3 sequence (P21275 with tags, fused parts or gaps): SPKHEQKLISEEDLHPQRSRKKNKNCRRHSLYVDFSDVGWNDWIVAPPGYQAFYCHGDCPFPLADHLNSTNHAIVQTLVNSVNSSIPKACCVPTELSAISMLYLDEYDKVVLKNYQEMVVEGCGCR
Procedure: as §2, §1
CM collected separately from cells transfected with Myc-BMP4 or GRE-HA was mixed and preincubated for 1 hour before adding to C2C12 cells (1). COS-1 cells were transfected separately with Myc-BMP4 or GRE-HA, trypsinized and co-cultured during CM collection (2).

Molecule: PKKFTTMMVTLNCPELQPPTKKKRVTRVKQ (listed as Homo sapiens) [linear peptide]
inhibition of BMP4 activities (BMP4 [1]): 56±10%

B2: GRE-NF-HA: truncated HA-tagged Gremlin with the carboxyl-terminal DAN domain deleted (protein)
chain: KKKGSQGAIPPPDKAQHNDSEQTQSPPQPGSRTRGRGQGRGTAMPGEEVLESSQEALHVTERKYLKRDW
modifications: left off: small tags and cut ends
notes: truncated HA-tagged Gremlin with the carboxyl-terminal DAN domain deleted
BMP4 binding (co-immunoprecipitation of Myc-BMP4) (Myc-BMP4): completely abolished

B3: HA-tagged mouse Gremlin (GRE-HA) (protein, not shown: small tags and cut ends)
chain: KKKGSQGAIPPPDKAQHNDSEQTQSPPQPGSRTRGRGQGRGTAMPGEEVLESSQEALHVTERKYLKRDWCKTQPLKQTIHEEGCNSRTIINRFCYGQCNSFYIPRHIRKEEGSFQSCSFCKPKKFTTMMVTLNCPELQPPTKKKRVTRVKQCRCISIDLD
inhibition of BMP4 activity (alkaline phosphatase activity, C2C12 cell differentiation assay); CM of Myc-BMP4 cells mixed with an equal amount of CM of GRE-HA cells [2]: 20%
inhibition of BMP4 activity (alkaline phosphatase activity, C2C12 cell differentiation assay); CM of cells co-transfected with Myc-BMP4 and GRE-HA [2]: 86%
inhibition of BMP4 activity (alkaline phosphatase activity, C2C12 cell differentiation assay); CM of co-cultured cells transfected separately with Myc-BMP4 or GRE-HA [2]: 55%

Now from value to molecule, other results behind:

BMP4 binding (co-immunoprecipitation of Myc-BMP4) (Myc-BMP4): retained its BMP4 binding activity
B1: GRE-DAN-HA: truncated HA-tagged Gremlin with the NH2-terminal fragment deleted (protein)
chain: CKTQPLKQTIHEEGCNSRTIINRFCYGQCNSFYIPRHIRKEEGSFQSCSFCKPKKFTTMMVTLNCPELQPPTKKKRVTRVKQCRCISIDLD
modifications: left off: small tags and cut ends
notes: truncated HA-tagged Gremlin with the NH2-terminal fragment deleted

BMP4 inhibitory effect (BMP4 [3]; CM from COS-1 cells transfected separately with Myc-BMP4 or GRE-HA and co-cultured during CM collection): 55±5%
BMP4 activity inhibited (BMP4 [3]; CM of Myc-BMP4 transfected cells plus equal amount of CM from GRE-HA transfected cells, mixed and preincubated 1 hour): 20±9%
BMP4 activity inhibited (BMP4 [3]; cells co-transfected with Myc-BMP4 and GRE-HA, p<0.05): 86±4%
B4: GRE-HA: HA-epitope tagged mouse Gremlin, full length, expressed by transfection (protein)
chain: KKKGSQGAIPPPDKAQHNDSEQTQSPPQPGSRTRGRGQGRGTAMPGEEVLESSQEALHVTERKYLKRDWCKTQPLKQTIHEEGCNSRTIINRFCYGQCNSFYIPRHIRKEEGSFQSCSFCKPKKFTTMMVTLNCPELQPPTKKKRVTRVKQCRCISIDLD
modifications: left off: small tags and cut ends
BMP4 binding (co-immunoprecipitation of Myc-BMP4) (Myc-BMP4): Myc-BMP4 precursor was found in the cell lysate; also recorded: retained its BMP4 binding activity
